Data set [1] deals with HIV-1 BH10 GagΔp6 (HIV-1 BH10). Put plainly: native MS.
Data set [2] has as its target HIV-1 BH10 GagΔp6 (HIV-1 BH10). Description: native MS. This is another data set of the same source.
Data set [3] addresses WT HIV-1 BH10 Gag (HIV-1 BH10). Put plainly: native MS.
In data set [4] the target is WT HIV-1 BH10 Gag (HIV-1 BH10). Description: native MS. The source holds these as a separate data set.
Data set [5] has as its target T1, WT Gag (HIV-1 BH10, UniProt P03347 1-512). Description: fluorescence anisotropy salt titration. On the technique in general: Fluorescence polarisation rises when a labelled molecule tumbles more slowly, as on binding a larger partner.
The target of data set [6] is T1, WT Gag. Description: native MS.

The source of these data is article doi:10.1101/2020.06.18.159822.

The stoichiometry N is the number of molecules, sites or subunits per partner or assembly. For orientation: Kd means the free concentration of one partner at which half of the binding sites on the other are occupied at equilibrium, for simple one-to-one binding.

Where two headings read alike, the source gives them in different places.

For the molecule HIV-1 BH10 GagΔp6 (domain or fragment), the stoichiometry N in data set [1] and in data set [2] was 2 each time. As for WT HIV-1 BH10 Gag (natural protein), the stoichiometry N in data set [3] and in data set [4] was 2 in each case.

B1: Psi RNA-FTSC (structured_RNA)
RNA: GGUCUCUCGACGCAGGACUCGGCUUGCUGGAGACGGCAAGAGGCGAGGGGCGGCGACUGGUGAGUACGCCAAAAAUUUUGACUAGCGGAGGCUAGAAGGAGAGA
Consider B1, for which the Kd with WT Gag [5] is 77 µM.

B2: TARpolyA RNA (structured_RNA)
RNA: GGGUCUCUCUGGUUAGACCAGAUCUGAGCCUGGGAGCUCUCUGGCUAACUAGGGAACCCACUGCUUAAGCCUCAAUAAAGCUUGCCUUGAGUGCUCAAAGUAGUG
Regarding B2, the binding result with WT Gag [6] is reported as “binds”.
